Assay results as given in patent US20030129186A1.

Target: p97 receptor (melanotransferrin receptor, MTf-R) on bovine brain capillary endothelial cells (BBCECs) (bovine)
Assay: cell-based or functional assay

recombinant receptor-associated protein (RAP)
decrease in initial rate of [125I]-p97 transport across BBCEC monolayers with recombinant RAP (25 µg/ml): > 50%
